Data published in patent publication US20250355001A1, “METHOD FOR DETECTING A TAU PROTEIN FRAGMENT IN A SAMPLE” (GTINVENT LIMITED, priority 2022, published 2025).

B1: S1G10: anti-tau clone, Table 2; SEQ ID NO: 415 (protein)
scFv: QVQLQESGPSLVKPSQTLSLTCTVSGFSLTSNSVGWVRQAPGKAPEWVAGIDTDGEEGYNPALNSRLSITRDTSKSQVSLSLSSVTSEDTAVYYCGRSYRADGLAYGYVQAIDYWGPGLLVTVSSEGKSSGASGESKVDDQAVLTQPSSMSGSLGQRVSITCSGSFIGISSVGWFQQLPGSGLRTIIVASDGRPSGVPDRFSMSKSGNTATLTISSLQAEDEADYFCGSSDRTQYTGVFGSGTRLTVLG
modifications: S1G10 amino acid sequence
B2: C-A9 (protein)
scFv: QVQLQESGPSLVKPSQTLSLTCTVSGFSLTSNSVGWVRQAPGKAPEWVAGIDTDGEEGYNPALNSRLSITRDTSKSQVSLSLSSVTSEDTAVYYCGRSYRSDGLAYGYVQAIDYWGPGLLVTVSSEGKSSGASGESKVDDQAVLTQPASVSGSLGQRVSITCSGSFIGISSVGWFQQLPGSGLRTIIVASDGRPSGVPDRFSMSKSGNTATLTISSLQAEDEADYFCGSSDRTQYTGVFGSGTRLTVLG
modifications: left off: small tags and cut ends
B3: S-1D12 (protein)
CDR 1: NNAVG
CDR 2: GCSSDGTCYYNSALKS
CDR 3: GHYSIYGYDYLGTIDY
CDR 4: SGSSSNVGGGNSVG
CDR 5: DTNSRPS
CDR 6: VTGDSTTHDDL
modifications: VHCDR1 S1D12, S2C1; VHCDR2 S1D12, S2C1; VHCDR3 S1D12; VLCDR1 S1D12, ME12; VLCDR2 S1D12; VLCDR3 S1D12
B4: 3aB7: anti-tau clone, Table 7; SEQ ID NO: 420 (protein)
chain: QVQLQESGPSLVKPSQTLSLTCTVSGFSLTSNGVGWVRQAPGKVPEWVGDKSSAGKTYGNPALKSRLSITRDTSKSQVSLSLSSVTTEDTAVYYCVRCRDGGVTYGYDVDYWGPGLLVTVSSEGKSSGASGESKVDDQAVLTQPSSVSKSLGQSVSITCSGSSSNVGYGDVVSWFQQFPGSAPKLLIFGTTTRASGVPDRFSGSRSGNAATLTINSLQAEDEADYYCASFDSDSGGIAGSGTRLTVLG
modifications: 3aB7 amino acid sequence
B5: CA12: anti-tau clone, Tables 2 and 10; SEQ ID NO: 372 (protein)
chain: QVQLQGSGPSLVKPSQTLSLTCTVSGFSFDSYYVGWVRQAPGKALEWLGNIYSTGRAFYNPALKSRLSITRDTSKSQVSLSVSSVTIEDTALYYCVRGSYYHGGGNGMVDFFDYWSPGLLVTVSSEGKSSGASGESKVDDQVVRTQPSSVSGSLGQRVSITCSGSSSNVGYGNYVGWFQQVPGSAPKLLIYAATSRASGVPDRFSGSRSGNTATLTIDSLQAEDEADYYCSSYQRGNTGVFGSGTRLTVLG
modifications: CA12 amino acid sequence
B6: 3aD3: N-terminal anti-tau clone, Table 6; SEQ ID NO: 422 (protein)
chain: QVQLQESGPSLVKPSQTLSLTCTVSGFSLTSNGVGWVRRAPGKVPEWVGDISSGGKVYGHPALKSRLSITRDTSKSQVSLSVSSVTSEDTAVYYCVRCRDGGVSYGYDSDYWGPGLLVTVSSEGKSSGASGESKVDDQAVVTQPSSVSKSLGQSVSITCSGSSSNVGYGDYVGWFQQVPGSAPKLLIYGVTERASGVPDRFSGSRSGNTATLTISSIQAEDEADYYCASYDDSSGGIFGSGTRLTVLG
modifications: 3aD3 amino acid sequence
B7: C-B3 (protein)
scFv: QVQLQESGPSLVKPSQTLSLTCTVSGFSLSSVAVNWVRQAPGKVPEWLGGIISNGGTGYNPALKSRLSITRDTSKSQVSLALTHVTTEDTAVYYCGRGVEWEGSMDYLGPGLLVTVSSEGKSSGSGSETKVDDQSVLTQPSSVSGFLGQRVTITCSGSSSNVGAGSYVGWYQQVPGSGLRILIYGATKRASGLPDRFSGSRSGNTATLTISSLQAEDEADYYCVSYQTDFTLVFGSGTRLTVLG
modifications: left off: small tags and cut ends
B8: 3bF4: anti-tau clone, Table 7; SEQ ID NO: 421 (protein)
chain: QVQLQESGPSLVKPSQTLSLTCTVSGFSLSSNGVGWVRQAPGKVPEWLGDISSVGKKYANPALKSRLSFTRDTSKSQVSLSLSSVTTEDTAVYYCVKCRDGGVTYGYDIDYWGPGLLVTVSSEGKSSGASGESKVDDQAVLTQPSSVSKSTGQTVSITCSGSSSNVGLRNYVTWFQQVPGSAPKLLIYGATSRASGIPDRFSGSRSGNTATLIISSLQAEDEADYYCASADTNDGGVFGSGTRLTVLG
modifications: 3bF4 amino acid sequence
B9: 3aA6: anti-tau clone, Table 8; SEQ ID NO: 418 (protein)
chain: QVRLQESGSSLVKPSQTLSLVCTVSGFPLTSNAVGWVRQAPGKAPEWLGLIDIDGDTAYNPALESRLSITRDTSKSQVSLSLSSVAIEDTAVYYCARHYDKWGYADSIDYWGPGLLVTVSSEGKSSGASGESKVDDQALLTQPSSVFGSLGQRVSITCSGSSSNVGYGDYVGWYQQVPGSAPKLLIYDATTRASGVPDRFSGSRSGNTATLTISSLQAEDEADYYCASYQNERSGVFGSGTRLTVLG
modifications: 3aA6 amino acid sequence
B10: C-E3 (protein)
CDR 1: SNAVG
CDR 2: GCSSDGKCYYNSALKS
CDR 3: GYYPVYGYDYLGTIDY
CDR 4: SGSSSNVGRNDVA
CDR 5: GTTSRPS
CDR 6: ASGDSSAINDI
modifications: VHCDR1 ME12, NS3D9; VHCDR1 S1D2, S1H6, S2C3; VHCDR1 MC5, MD12; VHCDR1 3aA6, VHCDR1 CE3; VHCDR2 NS3D9, CE3; VHCDR3 NS3D9, CE3; VLCDR1 NS3D9, CE3; VLCDR2 NS3D9, CE3; VLCDR3 NS3D9, CE3
B11: CB2: anti-tau clone, Tables 2 and 10; SEQ ID NO: 369 (protein)
scFv: QVQLQESGPSLVKPSQTLSLTCTVSGFSLSTNSVGWVRQAPGKAPEWVAGIDTDGEEGFNPVLKSRLSITRDTSKSQVSLSLSNVTSEDTAVYYCGRSYRTDGLAYGYVQAIDYWGPGLLVTISSEGKSSGASGESKVDDQSVLTQPSSVSGSPGQTVSITCSGSYIGSSGVGWFQQLPGSGLRTIIVASDGRPSGVPDRFSMSKSGNTATLTISSLQAEDEADYFCGSSDRTQYTGLFGSGTRLTVLG
modifications: CB2 amino acid sequence

What was measured:
[1] = system: hT40, dGA, dGAE and truncated tau fragments; test: Binding ELISA / epitope mapping of anti-tau scAbs with truncated tau proteins and 13mer peptides; set-up: species or system human; conditions: for Tau proteins/fragments with positive scAb reactivity: binding ELISA; for Shortest region bound on hT40: incl. 13mer peptides; for Binding regions on hT40: Table 33, core binding scAbs tested in epitope occlusion assays; for Short epitope on hT40: Table 18, '3a' & '3b' series scAbs; for Epitope: residue numbers of SEQ ID NO: 1 (hT40), CDR Tables 1-11
Method: A series of binding ELISA was performed using various truncated versions of the tau protein and 13mer peptide libraries spanning the entire hT40 molecule for mapping the epitopes of anti-tau scAbs (Full list of protein antigens used is given in Table 14). In general, ELISA plates were coated with 1 μg/ml hT40 or dGA or dGAE or other truncated versions of the protein and in the case of biotinylated peptides, plates were coated with 5 μg/ml Streptavidin followed by 1 μg/ml biotinylated peptide. The plates were blocked with 2% MPBS and scAb samples added at desired starting concentrations and double diluted across the plate. Binding was detected using anti-Human C Kappa HRP conjugated secondary antibody and the resulting immunoreaction was developed and absorbance values measured as described above.
Selected E specific scAbs and their specific binding to dGAE is shown below (FIG. 8A-E).
Similarly, dGA binding ‘NS’, ‘S’ and ‘M’ group scAbs were subjected to further antigen binding ELISA using shorter tau proteins and biotinylated 13mer peptides as shown below (FIG. 10A-F) and (FIG. 11A-R).

[2] = target: T1, hT40 (T441, SEQ ID NO: 1) (Homo sapiens, UniProt P10636); test: Biacore X100 SPR kinetics of scAbs for hT40; format: binding; conditions: Table 25; '3a' and '3b' scAbs, hT40
T1 construct: Full length tau (hT40)
T1 sequence (P10636 1-441 isoform P10636-8): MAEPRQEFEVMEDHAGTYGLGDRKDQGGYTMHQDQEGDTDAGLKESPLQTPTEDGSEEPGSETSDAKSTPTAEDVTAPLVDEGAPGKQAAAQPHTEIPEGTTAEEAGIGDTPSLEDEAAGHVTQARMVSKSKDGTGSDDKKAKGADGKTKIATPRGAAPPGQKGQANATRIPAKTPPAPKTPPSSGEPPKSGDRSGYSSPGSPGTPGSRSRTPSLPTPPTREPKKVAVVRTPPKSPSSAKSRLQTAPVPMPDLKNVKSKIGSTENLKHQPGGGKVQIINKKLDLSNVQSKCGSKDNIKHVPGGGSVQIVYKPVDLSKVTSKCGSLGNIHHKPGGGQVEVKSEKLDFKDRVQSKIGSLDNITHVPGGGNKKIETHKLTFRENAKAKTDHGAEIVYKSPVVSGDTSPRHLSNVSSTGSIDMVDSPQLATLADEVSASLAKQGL
Method: Surface plasmon resonance (SPR) is widely regarded as the gold standard for real time measurement of protein-protein interactions such as antibody binding. All SPR experiments were carried out using a Biacore X100 machine and HBS EP+ running buffer (GE Healthcare). A ‘capture’ method was followed for affinity measurements, where an anti-human constant kappa chain (HuCk) antibody was conjugated to the surface of a CM5 sensor chip using an amine coupling kit and scAb molecules were immobilised via their HuCk domain. Amine coupling is a very common approach for immobilising the ligand to the chip surface. […] The capture antibody was diluted 1/100 in 10 mM Sodium acetate buffer pH 5.0 and passed over the activated chip surface for a period of at least 420 s. Final ligand immobilisation levels over 12,000 RU were deemed to be satisfactory.
Following immobilisation, the level of each scAb to be captured was identified using the standard SPR equation with a theoretical RMax of 100 RU. Analyte MW refers to the molecular weight of hT40 or dGA/dGAE molecules, while ligand MW refers to the molecular weight of the scAbs tested. RL is the desired capture level and S refers to the stoichiometric ratio:
The scAb to be tested was added only to flow cell 2 so that flow cell 1 could act as a control to subtract any interaction with the analyte and the chip surface. Both single and multi-cycle runs were utilised using wizards developed in the Biacore X100 control software which are both accepted methods of kinetic analysis (Karlsson, R., et al. Analyzing a kinetic titration series using affinity biosensors (2006) Analytical Biochemistry 349:136-47). The multi-cycle protocol was as follows-Three start-up cycles composed of an initial capture, to the desired level, of the scAb to be tested was performed followed by a 30 s injection of glycine buffer pH 2.0 after each cycle to regenerate the chip surface. […] Following three start-up cycles increasing concentrations (0.15625 nM-100 nM) of the target to be tested were added to the chip surface after the desired scAb capture. The target was added for a 120 s association period and 420 s dissociation period followed by another regeneration, 30 s injection of glycine buffer pH 2.0 in between each cycle.
The single cycle kinetics protocol was similar and utilised the same level of scAb capture. Three start-up cycles were used followed by 5 increasing concentrations of the analyte (6.25 nM-100 nM) for an association period of 120 s followed by a dissociation period of 420 s for each concentration. In single cycle kinetics the regeneration step was performed only after the final analyte concentration was added. Binding responses were analysed in Biacore X100 evaluation software and data fitted to a 1:1 binding model to obtain kinetic and affinity characterisation.

Molecule | Binding regions on hT40 [1] | Short epitope on hT40 [1] | Epitope [1] | ka [2] | kd [2] | also measured
B1 | – | – | – | – | – | Tau proteins/fragments with positive scAb reactivity ([1]; Table 16, NS, S and M clones): hT40, 297-390 (dGA), 297-391 (dGAE), 369-390, 369-391; Shortest region bound on hT40 ([1]; Table 16, NS, S and M clones): 367-379; Detection scAb (Epitope) ([1]; Table 28 (LoD table), residues of hT40): S1G10 (367-379)
B2 | 367-379 | – | – | – | – | –
B3 | 337-355 | – | – | – | – | –
B4 | – | 49-111 | 49-111 | 207200 M⁻¹ s⁻¹ | 0.01435 s⁻¹ | –
B5 | – | – | – | – | – | Tau proteins/fragments with positive scAb reactivity ([1]; Table 17, 'C' group scAbs): hT40, 297-390 (dGA); Shortest region bound on hT40 ([1]; Table 17, 'C' group scAbs): 367-379
B6 | – | 1-49 | 1-49 | 544400 M⁻¹ s⁻¹ | 0.01038 s⁻¹ | –
B7 | 360-390 | – | – | – | – | –
B8 | – | 49-111 | 49-111 | 109300 M⁻¹ s⁻¹ | 0.01532 s⁻¹ | –
B9 | – | 147-157 | 147-157 | 19000 M⁻¹ s⁻¹ | 0.0188 s⁻¹ | –
B10 | 297-356 | – | – | – | – | –
B11 | – | – | – | – | – | Tau proteins/fragments with positive scAb reactivity ([1]; Table 17, 'C' group scAbs): hT40, 348-441; Shortest region bound on hT40 ([1]; Table 17, 'C' group scAbs): 359-391
